According to patent publication US20130230527A1 (University of California, published 2013):

What was measured:
[1] = target: T1, biotin conjugated 24 amino acid peptide of the extracellular loop of mouse EMP2 (mouse, biotin conjugated (position not given)); experiment: method and target not given; reference is the original scFv
T1 construct: The EMP2 part is followed by a GSGSK tail; also called mEMP2 peptide; mEMP2
T1 peptide: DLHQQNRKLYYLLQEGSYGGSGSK

[2] = target: T1, biotin conjugated 24 amino acid peptide …; experiment: ELISA, diabody titration on mEMP2 peptide on streptavidin plates
Description: (§1) 10 μg/mL of biotinylated 24 amino acid peptide (see the phage library selection section above) was coated onto streptavidin-coated 96-well plates (Roche Applied Science, Indianapolis, Ind.) in PBS for 1 hour at room temperature. Plates were then washed with PBS and blocked with 2% milk PBS for 2 hours at 37° C. Expressed phage antibodies or diabodies were added to each well, incubated at room temperature for 1 hour, and washed with 0.05% PBS/Tween three times. Bound antibodies or diabodies were detected with mouse anti-c-Myc (9E10) antibody (Calbiochem, San Diego, Calif.), followed by horseradish peroxidase (HRP) conjugated anti-mouse antibody (BD Bioscience Pharmingen, Franklin Lakes, N.J.) and TMB solution (eBioscience, San Diego, Calif.). Plates were read by microplate reader Model 550 (Bio-Rad, Hercules, Calif.) at 450 nm.
(§2) Specificity and titer of selected diabodies were initially tested by ELISA using plates coated with hEMP2 or mEMP2 peptides. […] Using monovalent scFv products of these two antibodies, the EC₅₀ for cognate EMP2 peptide was >2 μg/mL (data not shown). Thus, divalency contributed to the avidity of the two anti-EMP2 diabodies.

[3] = target: T2, biotin conjugated 24 amino acid peptide of the extracellular loop of human EMP2 (human, biotin conjugated (position not given)); experiment: ELISA on peptide-coated plates
T2 construct: The EMP2 part is followed by a GSGSK tail; also called hEMP2 peptide; hEMP2
T2 peptide: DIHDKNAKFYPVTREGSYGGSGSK
Description: as §1, §2

[4] = target: T1, biotin conjugated 24 amino acid peptide …; experiment: ELISA on cognate EMP2 peptide (data not shown)
[5] = target: T2, biotin conjugated 24 amino acid peptide …; experiment: ELISA on cognate EMP2 peptide (data not shown)
[6] = target: T2, biotin conjugated 24 amino acid peptide …; experiment: ELISA, diabody titration on hEMP2 peptide on streptavidin plates
Description: as §1, §2

[7] = target: T2, biotin conjugated 24 amino acid peptide …; experiment: method and target not given; reference is the original scFv
[8] = target: T1, biotin conjugated 24 amino acid peptide …; experiment: ELISA on peptide-coated plates
Description: as §1, §2

B1: anti-EMP2 diabody KS83 (other)
chain: MAQVQLVESGGGLVQPGGSLRLSCAASGFTFSSYAMHWVRQAPGKGLEWVAVISYDGSNKYYADSVKGRFTISRDNSKNTLYLQMNSLRAEDTAVYYCARTVGATGAFDIWGQGTMVTVSSSSGGGSDIVMTQSPSTVSASVGDRVIIPCRASQSIGKWLAWYQQKPGKAPKLLIYKASSLEGWVPSRFSGSGSGTEFSLTISSLQPDDSATYVCQQSHNFPPTFGGGTKLEIKRAAAEQKLISEEDLNGAAHHHHHH
notes: Diabody: bivalent dimer of a VH-5 aa linker-VL chain with c-Myc and 6 His tags; Selected against the mEMP2 peptide; also called K83; diabody 83
In the case of B1, the “fold increase in binding activity compared to original scFvs” value [1] is reported as over 20 fold, the EC50 [2] is reported as 9.32 ng/mL and the binding result [3] is reported as “no binding”.

B2: KS83 monovalent scFv (scFv)
scFv: MAQVQLVESGGGLVQPGGSLRLSCAASGFTFSSYAMHWVRQAPGKGLEWVAVISYDGSNKYYADSVKGRFTISRDNSKNTLYLQMNSLRAEDTAVYYCARTVGATGAFDIWGQGTMVTVSSSGGGGSGGGGSGGGGSDIVMTQSPSTVSASVGDRVIIPCRASQSIGKWLAWYQQKPGKAPKLLIYKASSLEGWVPSRFSGSGSGTEFSLTISSLQPDDSATYVCQQSHNFPPTFGGGTKLEIKRAAAEQKLISEEDLNGAAHHHHHH
notes: The original scFv before the linker was shortened; also called KS83 scFv
Work on B2 yielded an EC50 [4] of over 2 µg/mL.

B3: KS49 monovalent scFv (scFv)
scFv: MAQVQLVQSGGGVVQPGRSLRLSCAASGFTFSSYAMHWVRQAPGKGLEWVAVISYDGSNKYYADSVKGRFTISRDNSKNTLYLQMNSLRAEDTAVYYCARDRRGRKSAGIDYWGQGTLVTVSSGGGGSGGGGSGGGGSDIQMTQSPSSLSASVGDRVTITCQASQDISNYLNWYQQKPGKAPKLLIYAASSLQSGVPSRFSGSGSGTDFTLTISSLQPEDFATYYCLQDYNGWTFGQGTKVDIKRAAAEQKLISEEDLNGAAHHHHHH
notes: The original scFv before the linker was shortened; also called KS49 scFv
In the case of B3, the EC50 [5] is reported as over 2 µg/mL.

B4: anti-EMP2 diabody KS49 (other)
chain: MAQVQLVQSGGGVVQPGRSLRLSCAASGFTFSSYAMHWVRQAPGKGLEWVAVISYDGSNKYYADSVKGRFTISRDNSKNTLYLQMNSLRAEDTAVYYCARDRRGRKSAGIDYWGQGTLVTVSSSGGGSDIQMTQSPSSLSASVGDRVTITCQASQDISNYLNWYQQKPGKAPKLLIYAASSLQSGVPSRFSGSGSGTDFTLTISSLQPEDFATYYCLQDYNGWTFGQGTKVDIKRAAAEQKLISEEDLNGAAHHHHHH
notes: Diabody: bivalent dimer of a VH-5 aa linker-VL chain with c-Myc and 6 His tags, made in E. coli TG1; Selected against the hEMP2 peptide; also called K49; anti-hEMP2 diabody
For B4, the EC50 [6] was 0.0531 µg/mL, the “fold increase in binding activity compared to original scFvs” value [7] was over 20 fold and the binding result [8] was “no binding”.
